Experiment [1] addresses T1, human ROR2 expressed on the cell surface (human, UniProt Q01974 34-943).
T1 construct: Endogenous ROR2 of human tumour cell lines; also called cell surface ROR2; ROR2 on tumour cell lines
The experiment is described as follows: flow cytometry, U2OS cells (osteosarcoma). Also on record: unit not given here. As for the experimental part: (§1) Human tumour cell lines were authenticated using short tandem repeat (STR) analysis. They were cultured in RPMI1640 (Cellgro) supplemented with 10% fetal bovine serum (FBS, Life Technologies) at 37° C. in a 5% CO₂ humidified incubator. They were harvested, washed in PBS and reacted with ROR2-IgG at 1 ug/10⁶ tumour cells on ice for an hour. #901-IgG was used as a negative control at the same dose. After washing, a secondary PE-conjugated goat anti-human IgG, Fcγ fragment specific (1:100, Jackson ImmunoResearch) was added for another 30 min incubation. Staining was analyzed on a FACSCalibur (BD Biosciences). ROR2 (full length) antibody binding towards multiple cancer cell lines were compared with Rituxan and Herceptin antibodies. The cancer cell lines were derived from breast cancer, colorectal cancer, mesothelioma, hepatocellular carcinoma, ovarian cancer, osteosarcoma, neuroblastoma, etc. ROR2 #90 antibody could recognize most of the tumour cells tested, and in some cases, the binding intensity was higher than Herceptin (see Tables 8 to 10).
(In general: Flow cytometry measures light scatter and fluorescence of single cells or particles in a stream.)

For experiment [2], the target named is T1, human ROR2 expressed on the cell surface. The experiment in a line: flow cytometry, NCI-H2052 cells (mesothelioma). Also on record: reference not given here. On the procedure: as §1
The target is the same in experiment [3]. The experiment is described as follows: flow cytometry, SKES-1 cells (EW/PNET). Set-up: unit not given here. As for the experimental part:
as §1

The target is the same in experiment [4]. The experiment is described as follows: flow cytometry, SKBR3 cells (breast CA). Also on record: reference not given here. On the procedure: as §1
For experiment [5] the target is unchanged. The experiment is described as follows: flow cytometry, M14 cells (melanoma). Also on record: reference not given here. As for the experimental part:
as §1

Experiment [6] has the same target. The experiment in a line: flow cytometry, SKHEP-1 cells (HCC). Set-up: unit not given here. On the procedure:
as §1

For experiment [7] the target is unchanged. The experiment in a line: flow cytometry, BE(1)N cells (neuroblastoma). Also on record: unit not given here. On the procedure:
as §1

Experiment [8] has the same target. The experiment is described as follows: flow cytometry, H69 cells (SCLC). Set-up: unit not given here. On the procedure: as §1
For experiment [9] the target is unchanged. The experiment in a line: flow cytometry, U251 LUC cells (glioma). Also on record: unit not given here. As for the experimental part: as §1
Experiment [10] shares this target. The experiment in a line: flow cytometry, JN DSRCT cells (DSRCT). Also on record: unit not given here. As for the experimental part: as §1
Experiment [11] has the same target. The experiment in a line: flow cytometry, AU565 cells (breast CA). Set-up: unit not given here. As for the experimental part:
as §1

For experiment [12] the target is unchanged. The experiment in a line: flow cytometry, LAN-1 cells (neuroblastoma). Set-up: unit not given here. As for the experimental part: as §1
Experiment [13] has the same target. The experiment is described as follows: flow cytometry, H524 cells (SCLC). Also on record: reference not given here. As for the experimental part:
as §1

Experiment [14] has the same target. The experiment in a line: flow cytometry, SKNMM cells (neuroblastoma). Also on record: unit not given here. On the procedure:
as §1

Experiment [15] has the same target. The experiment in a line: flow cytometry, HTB132 cells (breast CA). Set-up: unit not given here. As for the experimental part: as §1
For experiment [16], the target named is T2, biotin-SGSG-KTITATGVLFVRLGP ROR2 array peptide (human).
T2 construct: Peptide of the overlapping ROR2 peptide array, immobilised on streptavidin plates
T2 peptide: Biotin-SGSGKTITATGVLFVRLGP
The experiment in a line: ELISA on biotinylated ROR2 peptide array. On the procedure:
To better understand the structural basis of the ROR2-specific antibody as a drug candidate, a standard epitope mapping was performed by ELISA against a ROR2 peptide array. The peptide array covers the whole length of the ROR2 protein through 96 overlapping peptides ([…] each with 4 amino acids worth of space between them). The peptides were biotinlyated at the N-terminal to immobilize them onto streptavidin ELISA plates. A spacer (SGSG) was used to provide flexibility. The space was inserted at the N-terminal biotin-SGSG-15 amino acids. ELISA assays were performed with the full length ROR2 antibodies as the primary antibody and an anti-human Fc AP-conjugated antibody was used for detection. […] FIG. 12 indicates the epitope position in ROR2 primary structure. This sequence is not shared by ROR1 and not found in human proteins by PBLAST.

No end group written: not given here. *: point of attachment. Biotin = O=C1N[C@H]2[C@H](CS[C@H]2CCCCC(=O)*)N1

T1 sequence (Q01974 34-943 limits assumed): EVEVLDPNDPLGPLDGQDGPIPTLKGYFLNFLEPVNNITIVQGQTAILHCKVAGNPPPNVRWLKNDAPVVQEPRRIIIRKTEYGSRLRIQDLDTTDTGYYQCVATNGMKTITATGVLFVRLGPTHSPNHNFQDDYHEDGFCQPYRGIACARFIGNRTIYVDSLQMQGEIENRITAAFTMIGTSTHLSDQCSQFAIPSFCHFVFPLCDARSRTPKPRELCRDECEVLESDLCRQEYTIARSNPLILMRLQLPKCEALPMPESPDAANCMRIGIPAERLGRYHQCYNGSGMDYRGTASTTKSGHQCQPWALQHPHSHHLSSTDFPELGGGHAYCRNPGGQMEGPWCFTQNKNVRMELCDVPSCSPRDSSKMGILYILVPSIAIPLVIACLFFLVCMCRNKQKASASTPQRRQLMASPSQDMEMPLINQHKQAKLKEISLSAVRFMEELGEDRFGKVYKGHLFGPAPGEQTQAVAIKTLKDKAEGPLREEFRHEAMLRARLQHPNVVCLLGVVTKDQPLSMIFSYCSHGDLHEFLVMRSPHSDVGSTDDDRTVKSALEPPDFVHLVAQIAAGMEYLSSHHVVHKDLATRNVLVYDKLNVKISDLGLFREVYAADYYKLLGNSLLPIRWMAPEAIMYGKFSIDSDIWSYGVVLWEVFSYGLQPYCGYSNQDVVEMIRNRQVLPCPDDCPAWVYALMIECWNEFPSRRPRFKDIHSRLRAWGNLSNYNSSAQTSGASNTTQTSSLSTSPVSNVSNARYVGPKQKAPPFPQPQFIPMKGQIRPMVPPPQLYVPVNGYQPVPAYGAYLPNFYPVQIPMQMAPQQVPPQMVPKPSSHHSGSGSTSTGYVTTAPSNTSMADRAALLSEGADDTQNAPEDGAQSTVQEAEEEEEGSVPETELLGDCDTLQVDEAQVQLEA

B1: ROR2-240 full length human IgG1 antibody (antibody, V domains shown)
VH: QITLKESGPELVKPTQTLTLTCTFSGFSLSTSGMSVSWIRQPPGKALEWLARIDWDDDKYYSTSLKTRLTISKDTSKNQVVLTMTNTDPVDTATYYCARGFYLAYGSYDSWGQGTLVTVSS
VL: QSALTQPASVSGSPGQSITISCTGTSGDVGGYNYVSWYQHHPGKAPKLIIYDVNKRPSGFSDRFSGSKSGNTASLTISGLQAEDEADYYCSSYTSTSTVFGGGTKLTVLG
notes: also called clone #240 IgG1
On to B1, for which the binding intensity worked out at 39 in experiment [1]; 8 in experiment [2]; 5 in [3]; 5 in [4]; 4 in [5]; 21 in experiment [6]. For the same molecule, the binding intensity in [7] is 279; in [8] it was 9; in experiment [9], 5; in experiment [10], 3; in experiment [11], 4; in experiment [12], 37. The binding intensity in experiment [13] is 7; in [14], 84; in experiment [15], 4.

B2: ROR2-90 full length human IgG1 antibody (antibody, V domains shown)
VH: EVQLVESGPGLVKPSQTLSLTCTVSGGSISSGGYYWSWIRQHPGKGLEWIGYIYYSGSTYYNPSLKSRVTISVDTSKNQFSLKLSSVTAADTAMYYCARGGLYWTYSQDVWGQGTLVTVSS
VL: QPVLTQPPSASGTPGQRVTISCSGSSSNIGSDYVSWYQQLPGTAPKLLIYRNDQRPSGVPDRFSGSKSGTSASLAISGLRSEDEADYYCVAWDDSLSGYVFGSGTKVTVLG
notes: also called clone #90; antibody #90
With B2, the binding intensity in experiment [1] worked out at 94; in experiment [2] it was 101; in [3], 28; in [4], 98; in [5] it was 17; in experiment [6] it was 74. Besides, the binding intensity in experiment [7] is 302; in [8], 15; in experiment [9], 27; in [10] it was 84; in experiment [11], 211; in experiment [12], 48. Further, the binding intensity was 20 in experiment [13], 117 in experiment [14] and 5 in [15]. Moreover, in experiment [16], the binding result is recorded as “binds”.

B3: ROR2-23 full length human IgG1 antibody (antibody, V domains shown)
VH: EVQLVQSGAEVKKPGESLKISCQGSGYRFSKYWIGWVRQMPGKGLEWMGIIYPGDSDTRYSPSFQGQVTISADKSISTAYLQWSSLKASDTAMYYCARSFSSFIYDYWGQGTLVTVSS
VL: ETTLTQSPGTLSVSPGERATLSCRASQSVSSNLAWYQQKRGQAPRLLIYGASTRATGIPVRFSGSGSGTEFTLTISRLEPEDFAVYYCQQYGRSPLTFGGGTKVDIKR
notes: The light chain of clone 023 is labelled kappa; also called clone #23; clone #023 IgG1
As for B3, the binding intensity in experiment [1] came to 52; in experiment [2] it was 65; in experiment [3], 22; in experiment [4], 48; in experiment [5], 9; in [6], 42. Besides, the binding intensity in experiment [7] is 273; in experiment [8] it was 9; in [9], 14; in experiment [10] it was 50; in experiment [11] it was 102; in experiment [12], 34. The values for the binding intensity in [13], in [14] and in experiment [15] were 28, 77 and 5, respectively.

B4: ROR2-241 full length human IgG1 antibody (antibody, V domains shown)
VH: EVQLVQSGAEVKKPGASVKVSCKASGYTFTNYYIHWVRQAPGQGLEWMGIINPTSGRTRYAQRFQGRVTMTRDTSTNTVYMDLSSLRSEDTAMYYCARSGYYWGVNGDQWGQGTLVTVSS
VL: SYELTQPLSVSVALGQTARITCGGNNIGSKNVHWYQQKPGQAPVLVIYRDSNRPSGIPERFSGSNSGNTATLTISRAQAGDEADYYCQVWDSSIVVFGGGTKLTVLG
Turning to B4, the binding intensity in [1] came to 60; in [2], 43; in experiment [3] it was 12; in [4] it was 27; in experiment [5], 12; in experiment [6] it was 53. Also, the binding intensity in experiment [7] amounted to 352; in [8], 131; in [9] it was 120; in [10], 27; in [11], 83; in experiment [12] it was 68. For the same molecule, the binding intensity in experiment [13] worked out at 32; in experiment [14], 126; in [15] it was 45.

B5: ROR2-27 full length human IgG1 antibody (antibody, V domains shown)
VH: QVQLVESGAEVKKPGESLKISCKASGYSFSNYWIGWVRQMPGKGLEWMGIIYPDDSDTRYSPSFQGQVTISADKSISTAYLQWYSLKVADTAKYYCVRPRGAFDIWGQGTTVTVSS
VL: QSVLTQPPSVSGAPGQRVTISCTGSSSNIGAGHAVHWYQQLPGTAPKLLIYDNANRPSGVPDRFSGSQSGTSASLAITGLQTGDEADYYCGTWDDSPSAYVFGTGTKVTVLG
notes: also called clone #27; clone #027 IgG1
On to B5, for which the binding intensity in experiment [1] was determined as 29; in experiment [2], 46; in experiment [3] it was 12; in [4], 15; in experiment [5] it was 5; in [6] it was 23. Moreover, the binding intensity is 244 in experiment [7]; 24 in [8]; 9 in [9]; 5 in experiment [10]; 8 in [11]; 28 in experiment [12]. The binding intensity in experiment [13] came out at 16; in experiment [14], 69; in [15], 8.

(Values after patent US20180127503A1 (EUREKA THERAPEUTICS, published 2018).)
